Test results published in US8153410B2, “Alternate morpheein forms of allosteric proteins as a target for the development of bioactive molecules” (Fox Chase Cancer Center, priority 2003, dated 2012).
Entries after “also recorded” stand apart in the source; their conditions may differ. Read-outs that look alike come from different tables or passages of the source.

T1: pea PBGS (Pisum sativum, UniProt P30124)
T1 sequence (P30124 69-398 limits assumed): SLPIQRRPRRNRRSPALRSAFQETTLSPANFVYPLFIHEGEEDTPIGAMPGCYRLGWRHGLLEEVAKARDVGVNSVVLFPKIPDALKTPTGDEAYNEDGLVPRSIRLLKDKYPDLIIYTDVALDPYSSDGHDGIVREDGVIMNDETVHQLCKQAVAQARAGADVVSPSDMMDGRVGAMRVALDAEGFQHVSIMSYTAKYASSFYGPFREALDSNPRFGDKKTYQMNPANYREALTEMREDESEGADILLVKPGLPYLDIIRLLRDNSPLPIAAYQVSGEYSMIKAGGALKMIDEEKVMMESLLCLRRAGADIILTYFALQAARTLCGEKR

B1: F12L: naturally occurring rare allele variant of human PBGS, hexameric, heterologously expressed in E. coli (protein)
chain: MQPQSVLHSGYLHPLLRAWQTATTTLNASNLIYPIFVTDVPDDIQPITSLPGVARYGVNRLEEMLRPLVEEGLRCVLIFGVPSRVPKDERGSAADSEESPAIEAIHLLRKTFPNLLVACDVCLCPYTSHGHCGLLSENGAFRAEESRQRLAEVALAYAKAGAQVVAPSDMMDGRVEAIKEALMAHGLGNRVSVMSYSAKFASCFYGPFRDAAKSSPAFGDRRCYQLPPGARGLALRAVDRDVREGADMLMVKPGMPYLDIVREVKDKHPDLPLAVYHVSGEFAMLWHGAQAGAFDLKAAVLEAMTAFRRAGADIIITYYTPQLLQWLKEE

Experiments:
Format in all cases: biochemical
pea PBGS [1] = target: T2, pea PBGS (Pisum sativum, UniProt P30124, C394A); assay: native PAGE gel shift of pea PBGS octamer/hexamer equilibrium; conditions: pea PBGS C326A hexamer, rosmarinic acid 12.5 μM-12.5 mM preincubated 30 min 37 C, then 1 mM ALA and 1 mM MgCl2
T2 construct: made in house
Description: (§1) FIG. 32(a) The inhibitor morphlock-1 is illustrated as posed by Glide. The subunits A, B, and E are illustrated as ribbon diagram. Morphlock-1 is shown with carbon atoms and illustrated as ball and stick. FIG. 32(b) The chemical structure of morphlock-1. […] Pea PBGS was incubated with various concentrations of morphlock-1 (in a DMSO solution). Each concentration of morphlock-1 with a fixed amount of DMSO was incubated with protein for 30 minutes at 37° C. prior to resolution on 12.5% polyacrylamide native PhastGels. […] (d) The protein concentration dependence of pea PBGS specific activity is illustrated. PBGS (at varied concentrations) was incubated in the presence of DMSO (●) or 50 μM morphlock-1 in DMSO (∘) for 30 minutes at 37° C. prior to assay. The final concentration of morphlock-1 in the inhibited assay was 5 μM, and the concentration of PBGS in the inhibited and control assays ranged from 0.05-50 μg/mL (0.014-1.4 μM).
FIG. 34(b) Hexameric pea PBGS (1 mg/mL, prepared by dialysis against low ionic strength) was incubated with DMSO (left) or 500 μM morphlock-1 (right) for 30 minutes at 37° C. ALA was added at the indicated concentrations, and the incubation was continued for 30 minutes prior to resolution on 12.5% polyacrylamide native PhastGels. […] Morphlock-1 concentrations are listed at the top of each lane. Protein samples for left-most gel were at 50 μg/ml (1.4 μM subunit) and 1 mM ALA; protein detection is by silver staining. Samples for the middle gel were also at 50 μg/ml (1.4 μM subunit) and 1 mM ALA; the gel was activity stained. Samples for the right-most gel were at 5 μg/ml (0.14 μM subunit) and 10 mM magnesium; protein detection is by Krypton Infrared staining.
FIG. 41 illustrates native PAGE screening of compounds. Octameric PBGS (1 mg/mL) was incubated with DMSO or 2 mM of each compound for 30 minutes at 37° C. prior to resolution on 12.5% polyacrylamide native PhastGels. […] Each compound is identified by its box address. The compound B6 is morphlock-1.
The interconversion of pea PBGS hexamer and octamer is a dynamic equilibrium that responds to protein concentration, substrate concentration, magnesium concentration, inhibitor concentration, and ionic strength.

pea PBGS [2] = target: T1, pea PBGS; assay: pea PBGS activity assay (inhibition, protein concentration dependent specific activity); parameters: made in house
Description: as §1, with “PBGS (at varied concentrations) was incubated in the presence of DMSO (●) or 50 μM morphlock-1 in DMSO (∘) for 30 minutes at 37° C. prior to assay.” left out
The proteins were incubated in the presence of 10× inhibitor for 30 minutes at 37° C. prior to assay. The concentrations on the X-axis represent the final concentration of morphlock-1 in the assay. FIG. 33(b). […] IC50 values were determined as per part (a) using the noted concentrations of pea PBGS. (c) Native PAGE evaluation of the effect of morphlock-1 on the quaternary structure equilibria of PBGS (˜1 mg/ml) from D. melanogaster, P. aeruginosa, V. cholerae, and H. sapiens. Note that the charge/mass ratio is not the same for PBGS from different species.
The dose response curve for morphlock-1 inhibition of pea PBGS (FIG. 37a) was initially carried out at 0.03 μM pea PBGS, where the hexamer is a significant component of the equilibrium mixture; the morphlock-1 concentration was varied from 0.1 μM to 0.1 mM.
The dose response curve for morphlock-1 inhibition of pea PBGS (FIG. 33(a)) was initially carried out at 0.03 μM pea PBGS, where the hexamer is a significant component of the equilibrium, in order to optimize the observed inhibition; the morphlock-1 concentration was varied from 0.1 μM to 0.1 mM.

human PBGS [3] = assay: kinetic characterization (Km, Vmax, specific activity) of human PBGS variants with substrate ALA; conditions: for Km1 / Vmax1: Table 1; for Vmax2 / Km: Table 3; for Km: read-out: Km2 (Km for the hexamer)
Description: All kinetic determinations were carried out in 0.1 M bis-tris propane, 10 mM 2-mercaptoethanol, 10 μM Zn. For the pH rate profiles, the reported pH reflects the assay pH after the addition of 10 mM ALA-HCl. For Km and Vmax determinations, concentrations of ALA were 10 μM, 30 μM, 100 μM, 300 μM, 1 mM, 3 mM, and 10 mM and were each done in duplicate. […] All assays were at 37° C. for a fixed time using Ehrlich's reagent to determine porphobilinogen formed.
The kinetic parameters Km and Vmax of the S300 purified pools were determined at pH 7 and at pH 9 (Table 3 contains data for hetero-hexamers (Pool I) initially at 70% Leu and 30% Phe and for hetero-octamers (Pool II) initially at 30% Leu and 70% Phe). […] With the exception of the trace amount of octamer present for Pool I that is detected at pH 9, all the kinetic values are well determined (see Table 3). […] The factors that govern equilibration of human PBGS heteromers under assay conditions remain to be elucidated.
Km1 and Km2 (both mM) are interpreted as the Km for the octamer and hexamer, respectively.
Using freshly prepared hetero-oligomers of WT+F12L, the Pool I and Pool II proteins were separated chromatographically and then dialyzed for 24 hours at pH 7 in the presence of 10 mM ALA. Following dialysis, the re-equilibrated hetero-oligomers were again separated into their hexameric and octameric components by chromatography on a Mono-Q column. The separated proteins were characterized for their specific activity and for their Phe12 and Leu12 content. The specific activity of hexamer and octamer are dramatically different with hexamer showing optimal activity at pH 9 and the activity of octamer is maximal at pH 7 (Table 4). […] Following chromatographic separation, the proteins were called Pool I hexamer, Pool I octamer, Pool II hexamer, and Pool II octamer and are described below. The peak to elute first on the Mono-Q column runs comparably to the F12L mutant, which is the hexamer. The hexameric structure is substantiated by native gel electrophoresis and by specific activity at pH 7 and pH 9 (FIG. 26A and Table 4). The second peak to elute runs comparably to the WT human PBGS, which is the octamer. The octameric structure is substantiated by native gel electrophoresis and specific activity at pH 7 and pH 9 (FIG. 26A and Table 4). Consistent with the documented characteristics of human PBGS hexamers and octamers, Pool I hexamer and Pool II hexamer have very low activity at pH 7 and considerable activity at pH 9. Pool I octamer and Pool II octamer both show substantially higher activity at pH 7 than at pH 9.

human PBGS [4] = assay: temperature dependence (Arrhenius plots) of hetero-hexamer to hetero-octamer conversion and of substrate turnover; conditions: pH 7.0, 10 mM ALA-HCl
Source text: To determine the free energy of activation for the conversion of hetero-hexamers to hetero-octamers, we took advantage of the dramatic differences in the activity of octameric (high activity) and hexameric (low activity) human PBGS at pH 7.0 (3, 5). Because of this difference, the transition from purified hetero-hexamers to a mixture of hetero-hexamers and hetero-octamers under turnover conditions is accompanied by a progressive increase in the specific activity; this process was monitored at several temperatures. Starting with purified hetero-hexamers, (FIG. 34a) the specific activity increased, which is fit to a first-order exponential as exemplified in FIG. 35b (5). […] The time-courses for conversion of hetero-hexamer to hetero-octamer were monitored by periodically removing aliquots from the incubations and immediately quantifying porphobilinogen using Ehrlich's reagent and calculating specific activities based on the total incubation time. […] An activation energy for hetero-hexamer to hetero-octamer conversion (Ea=63±5 kJ/mol) was determined from the slope of the plot. […] However, we previously monitored this process at 5 μg/ml and 0.9 mg/ml, two widely different enzyme concentrations, by specific activity increase and dynamic light scattering respectively. […]

T2 sequence (P30124 69-398 C394A): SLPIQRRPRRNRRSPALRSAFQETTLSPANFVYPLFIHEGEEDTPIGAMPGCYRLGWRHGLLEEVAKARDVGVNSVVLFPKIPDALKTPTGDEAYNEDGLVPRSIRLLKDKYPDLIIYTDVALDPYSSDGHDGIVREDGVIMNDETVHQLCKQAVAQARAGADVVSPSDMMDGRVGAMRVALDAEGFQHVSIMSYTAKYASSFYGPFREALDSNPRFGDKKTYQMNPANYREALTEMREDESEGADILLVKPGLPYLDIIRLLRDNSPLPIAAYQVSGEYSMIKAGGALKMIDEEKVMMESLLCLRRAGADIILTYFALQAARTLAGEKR

| Molecule | native gel: conversion of hexamer to octamer by ALA and magnesium (pea PBGS [1]) | IC50 (pea PBGS [2]) | mode of inhibition (dependence on preincubation time) (pea PBGS [2]) | PBGS concentration giving half maximal specific activity after rosmarinic acid treatment (pea PBGS [2]; 30 minute treatment with 30 μM rosmarinic acid, untreated 3.5 μg/ml) | Specific activities before and after substrate induced disproportionation (human PBGS [3]; pH 7) | Km1 (human PBGS [3]; pH 7) | Vmax1 (human PBGS [3]; pH 7) | Vmax2 (human PBGS [3]; pH 7) | Km (human PBGS [3]; pH 7) | Specific activities before and after substrate induced disproportionation (human PBGS [3]; pH 9) | Km1 (human PBGS [3]; pH 9) | Vmax1 (human PBGS [3]; pH 9) | Vmax2 (human PBGS [3]; pH 9) | Km (human PBGS [3]; pH 9) | activation energy for substrate turnover (human PBGS [4]) |
| --- | --- | --- | --- | --- | --- | --- | --- | --- | --- | --- | --- | --- | --- | --- | --- |
| O=C(/C=C/c1ccc(O)c(O)c1)O[C@H](Cc1ccc(O)c(O)c1)C(=O)O [rosmarinic acid, benzenepropanoic acid, α-[[(2E)-3-(3,4-dihydroxyphenyl)-1-oxo-2-propenyl]oxy]-3,4-dihydroxy-, (αR)-(9CI), reference compound] | prevent conversion of the hexamer to the octamer; also recorded: stabilizes the hexameric pea PBGS against conversion to the octamer | ~63 µM | slow-binding inhibitor | 13.5 µg/mL | – | – | – | – | – | – | – | – | – | – | – |
| B1 | – | – | – | – | 0.3 µmol/h/mg | 17.7 ± 1.1 mM | 1.14 ± 0.05 | 1.14 ± 0.05 µmol/h/mg | 17.7 ± 1.1 mM | 14.5 µmol/h/mg | 4.6 ± 0.1 mM | 18.2 ± 0.02 | 18.2 ± 0.2 µmol/h/mg | 4.6 ± 0.1 mM | 45 ± 3 kJ/mol |
